Assay [1] addresses T1, 人FcRn(β2M)-His蛋白 (human FcRn-ECD) (human, UniProt P61769 21-119).
T1 construct: Bought protein (Acro FCM-H5286); also called 人FcRn-ECD; FcRn-His
The assay can be described thus: indirect ELISA, plate-bound human FcRn-ECD (method of Example 2.1).

The target in assay [2] is T1, 人FcRn(β2M)-His蛋白 (human FcRn-ECD). The assay is described as follows: blocking ELISA pH 6.0, human IgG-biotin on plate-bound human FcRn-ECD (method of Example 4).
The target is the same in assay [3]. The assay is described as follows: blocking ELISA, human IgG on plate-bound human FcRn-ECD. A general note: An ELISA detects its analyte on a solid surface through an enzyme-linked reagent.
The target in another assay is T2, α2-Fc (human).
T2 construct: no linker is mentioned; also called FcRn功能结构域α2与人Fc融合蛋白; FcRnα2
T2 chain: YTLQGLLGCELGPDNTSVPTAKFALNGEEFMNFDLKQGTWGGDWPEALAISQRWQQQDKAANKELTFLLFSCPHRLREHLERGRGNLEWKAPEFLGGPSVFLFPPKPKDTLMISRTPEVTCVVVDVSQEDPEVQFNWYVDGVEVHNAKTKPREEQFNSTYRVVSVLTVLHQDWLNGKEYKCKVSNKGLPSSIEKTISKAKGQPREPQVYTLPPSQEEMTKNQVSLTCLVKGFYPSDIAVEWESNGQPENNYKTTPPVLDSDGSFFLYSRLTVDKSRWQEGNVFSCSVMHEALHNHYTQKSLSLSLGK
The assay is described as follows: Western blot on domain-Fc fusion.

Where “and” joins values, the source holds several entries; their conditions need not be identical. Identical values can stand only once.

T1 sequence (chain, as listed by the source limits assumed, chain 1 of 2): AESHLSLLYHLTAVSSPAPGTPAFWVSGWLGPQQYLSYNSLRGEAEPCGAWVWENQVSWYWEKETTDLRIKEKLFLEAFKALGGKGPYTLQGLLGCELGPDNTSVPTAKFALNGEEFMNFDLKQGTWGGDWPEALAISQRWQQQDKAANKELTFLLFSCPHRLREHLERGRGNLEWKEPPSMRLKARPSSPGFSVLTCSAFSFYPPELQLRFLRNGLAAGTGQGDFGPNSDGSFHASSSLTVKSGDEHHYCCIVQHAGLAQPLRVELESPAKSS
T1 sequence (P61769 21-119 limits assumed, chain 2 of 2): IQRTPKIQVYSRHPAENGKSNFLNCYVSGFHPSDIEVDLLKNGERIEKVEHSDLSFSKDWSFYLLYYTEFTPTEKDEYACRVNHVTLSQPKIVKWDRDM

B1: SPGA01-ch102 (antibody, human IgG4 S228P, kappa)
heavy: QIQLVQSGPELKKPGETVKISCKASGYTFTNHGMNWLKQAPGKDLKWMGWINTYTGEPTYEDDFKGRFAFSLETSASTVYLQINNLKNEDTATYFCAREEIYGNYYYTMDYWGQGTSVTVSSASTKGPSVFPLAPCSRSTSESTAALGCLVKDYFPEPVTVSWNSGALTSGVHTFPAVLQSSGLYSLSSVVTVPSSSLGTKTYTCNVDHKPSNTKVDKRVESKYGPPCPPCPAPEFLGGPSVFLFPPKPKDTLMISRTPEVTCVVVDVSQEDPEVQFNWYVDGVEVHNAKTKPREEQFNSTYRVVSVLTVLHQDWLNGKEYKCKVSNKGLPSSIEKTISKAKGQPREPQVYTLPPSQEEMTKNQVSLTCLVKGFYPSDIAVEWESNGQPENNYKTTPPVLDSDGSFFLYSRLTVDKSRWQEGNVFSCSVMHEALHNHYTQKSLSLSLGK
light: DIQMTQTTSSLSASLGDRVTISCSASQGISKYLNWYQQKPDGTVKLLIYYTSILHSGVPSRFSGSGSGTDYSLTISNLEPEDIATYFCQQYSKLPPTFGGGTKLEITRTVAAPSVFIFPPSDEQLKSGTASVVCLLNNFYPREAKVQWKVDNALQSGNSQESVTEQDSKDSTYSLSSTLTLSKADYEKHKVYACEVTHQGLSSPVTKSFNRGEC
notes: also called 嵌合抗体SPGA01-ch102; SPGA1-ch102
Broadly, the EC50 is the concentration needed to bring the measured effect to its halfway point. A lower EC50 goes with an effect from little substance. As usually defined, the IC50 is the concentration needed to halve the response being measured. A lower IC50 goes with higher potency. As to B1, the EC50 in assay [1] was 0.00973 µg/mL and 0.06 nM. For the same molecule, in assay [2], the IC50 is 0.0514 µg/mL and 0.34 nM.

B2: SPGA01-ch102mu (antibody, human IgG4 S228P, kappa)
heavy: QIQLVQSGPELKKPGETVKISCKASGYTFTNHGMNWLKQAPGKDLKWMGWINTYTGEPTYEDDFKGRFAFSLETSASTVYLQINNLKNEDTATYFCAREEIYGNYYYTMDYWGQGTSVTVSSASTKGPSVFPLAPCSRSTSESTAALGCLVKDYFPEPVTVSWNSGALTSGVHTFPAVLQSSGLYSLSSVVTVPSSSLGTKTYTCNVDHKPSNTKVDKRVESKYGPPCPPCPAPEFLGGPSVFLFPPKPKDTLYITREPEVTCVVVDVSQEDPEVQFNWYVDGVEVHNAKTKPREEQFNSTYRVVSVLTVLHQDWLNGKEYKCKVSNKGLPSSIEKTISKAKGQPREPQVYTLPPSQEEMTKNQVSLTCLVKGFYPSDIAVEWESNGQPENNYKTTPPVLDSDGSFFLYSRLTVDKSRWQEGNVFSCSVMHEALKFHYTQKSLSLSLGK
light: B1 light
notes: also called 突变的嵌合抗体SPGA01-ch102mu
With B2, the IC50 in assay [3] was 0.0122 µg/mL and 0.08 nM. Besides, in assay [1], the concentration for a half-maximal effect (EC50) is 0.00976 µg/mL and 0.06 nM.

B3: SPGA01-102 (antibody, V domains shown)
VH: QIQLVQSGPELKKPGETVKISCKASGYTFTNHGMNWLKQAPGKDLKWMGWINTYTGEPTYEDDFKGRFAFSLETSASTVYLQINNLKNEDTATYFCAREEIYGNYYYTMDYWGQGTSVTVSS
VL: DIQMTQTTSSLSASLGDRVTISCSASQGISKYLNWYQQKPDGTVKLLIYYTSILHSGVPSRFSGSGSGTDYSLTISNLEPEDIATYFCQQYSKLPPTFGGGTKLEIT
notes: Mouse monoclonal antibody from a hybridoma, purified on Protein G and detected with anti-mouse IgG; also called 鼠源抗人FcRn单克隆抗体
On to B3, for which the binding result with α2-Fc is “binds”.

These data come from CN114573698A (dated 2022).
